B1: OR4K15 (parent)
chain: GUUAACGGUCAUAGGCCAUGGAAACUAGGAGCACCAUUUCGCUGCCAGUGAAGAAAUGAACAAAGAAAAUCUGGGCCAGGCAGGCAUCAAAAGAAAUAGUCUUGCGCUCAACCAGAAAGUCUGUAAUCAUUUUAAGGGUA

Variants of: B1
Test: self-cleavage, relative activity (ratio to wild type); higher = more cleavage; in vitro, sequencing; the parent is a self-cleaving ribozyme

Row | Variant | self-cleavage
1 | GUUAACGGUCAUAGGCCAUGGAAAUUAGGAGCACCAUUUCGCUGCCGGUGAAGAAAUGAACAAAGAAAAUCUGGGCCAGGCAGGCAUCAAAAGAAAUAGUCUUGCGCUCAACCAGAAAGUCUGUAAUCAUUUUAAGGGUA [C25U A47G] | 1.76
2 | GUUAACGGUCAUAGGCCAUGGAAACUAGGAGCACCAUUUCGCUGCCAGUGAAGAAAUGAACAAAGGGAAUCUGGGCCAGGCAGGCAUCAAAAGAAAUAGUCUUGCGCUCAACCAGAAAGUCUGUAAUCAUUUUAAGGGUA [A66G A67G] | 1.22
3 | GUUAACGGUCAUAGGCCAUGGAAACUAGGAGCACCAUUUCGCUGCCAGUGAAGAAAUGAACAAAGAAAAUCUGGGCCAGGCAGGCAUCAAAAGGAAUAGUCUUGCGCUCAACCAGAAAGUCUGUAAUCAUCUUAAGGGUA [A94G U131C] | 0.66
4 | GUUAACGGUCAUAGGCCAUGGAAACUAGGAGCACCCUUUCGCUGCCAGUGAAGAAAUGAACAAAGAAAAUCUGGGCCAGGCAGGCAUCAAAAGAAAUAGUCUUGCGCUCAACCAGAAAGUCUGUAAUCAUUUUAAGGGUA [A36C] | 1.52
5 | GUCAACGGUCAUAGGCCAUGGAAACUAGGAGCACCAUUUCGCUGCCAGUGAAGAAAUGAACAAAGAAAAUCUGGGCCAGGCAGGCAUCAAAAGAAAUAGUCUUGCGCUCAACCAGGAAGUCUGUAAUCAUUUUAAGGGUA [U3C A116G] | 0.68
6 | GUUAACGGUCAUAGGCCAUGGAAACUAGGAGCACCAUUUCGCUGCCAGUGAAGAAAUGAACAAAGAAAAUCUGGGCCAGGCAGGCACCAAAAGAAAUAGUCUUGCGCGCAACCAGAAAGUCUGUAAUCAUUUUAAGGGUA [U87C U108G] | 0.02
7 | GUUAACGGUCAUAGGCCAUGGAAGCUAGGAGCACCAUUUCGCUGCCAGUGAAGAAAUGAACAAAGAAAAUCUGGGCCAGGCAGCCAUCAAAAGAAAUAGUCUUGCGCUCAACCAGAAAGUCUGUAAUCAUUUUAAGGGUA [A24G G84C] | 0.53
8 | GUUAACGGUCAUAGGCCAUGGAAACUAGGAGCACCAUUUCGCUGCCAGUGAAGAUAUGAACAAAGAAAAUCUGGGCCAGGCAGGCAUCAAAAGAAAUUGUCUUGCGCUCAACCAGAAAGUCUGUAAUCAUUUUAAGGGUA [A55U A98U] | 2.38
9 | GUUAACGGUCAUAGGCCAUGGAAACUAGGAGCACCAUUUCGCUGCCAGCGAAGAAAUGAACAAAGAACAUCUGGGCCAGGCAGGCAUCAAAAGAAAUAGUCUUGCGCUCAACCAGAAAGUCUGUAAUCAUUUUAAGGGUA [U49C A68C] | 1.29
10 | GUUAACGGACAUAGGCCAUGGAAACUAGGAGCACCAUUUCGCUGCCAGUGAAGAAAUGAACAAAGAAAAUCUGGGCAAGGCAGGCAUCAAAAGAAAUAGUCUUGCGCUCAACCAGAAAGUCUGUAAUCAUUUUAAGGGUA [U9A C77A] | 0.08
11 | GUUAACGGUCAUAGGCCAUGGAAACUAGGAGCACCAUUUCGCUGCCAGUGAAGAAAUGAACAAAGAAAAUCUGGGCCAGGCAGGCGUCAAAAGAAAUAGUCUCGCGCUCAACCAGAAAGUCUGUAAUCAUUUUAAGGGUA [A86G U103C] | 0.45
12 | GUUAACGGUCUUAGGCCAUGGAAACUAGGAGCACCAUUUCGCUGCCAGUGAAGAAAUGAACAAAGAAAAUCUGGGCCAGGCAGGCAUAAAAAGAAAUAGUCUUGCGCUCAACCAGAAAGUCUGUAAUCAUUUUAAGGGUA [A11U C88A] | 1.99
13 | GUUAACGGUCAUAGGCCAUGGAAACUAGGAGCACCAUUUCGCUGCCAGUGAAGAAAUGAACAAAGAAAAUCUGGGCCAGGCAGGCAUCAAAAGAAACAGUCUUGCGCUCAACCAGAAAGUCUGUAAUCAUUUUAAGGGUU [U97C A140U] | 1.02
14 | GUUAACGGUCAUAGGCCAUGGGAACUAGGAGCACCAUUUCGCUGCCAGUGAAGAAAUGAACAAAGAAAAUCUGGGUCAGGCAGGCAUCAAAAGAAAUAGUCUUGCGCUCAACCAGAAAGUCUGUAAUCAUUUUAAGGGUA [A22G C76U] | 0.19
15 | GUUAACGGUCGUAGGCCAUGGAAACUAGGAGCACCAUUUCGCUGCCAGUGAAGAAAUGAACAAAGAAAAUCUGGGCCAGGCAGGCAUCAAAAGAAAUAGUCUUGCGCUCAACCAGAAAGUCUGUAAUCAUUUUAAGAGUA [A11G G137A] | 0.53
16 | GUUAACGGUCAUAGGCCAUGGAAACUAGGAGCACCAUUUCGCUGCCAGUGAAGAAAUGAACAAAGUAAAUCUGGGCCAGGCAGGCAUCAAAAGGAAUAGUCUUGCGCUCAACCAGAAAGUCUGUAAUCAUUUUAAGGGUA [A66U A94G] | 1.36
17 | GUUAACGGUCAUAGGCCAUGGAAACUAGGAGCACCAUUUCGCUGCCAGUGGAGAAAUGAACAAAGAAAAUCUGGGCCAGGCAUGCAUCAAAAGAAAUAGUCUUGCGCUCAACCAGAAAGUCUGUAAUCAUUUUAAGGGUA [A51G G83U] | 0.7
18 | GUUAACGGUCAUAGGCCAUGGAAACUAGGAGCACCAUUUCGCUGCCAGUGAAGAGAUGAACAAAGAAAGUCUGGGCCAGGCAGGCAUCAAAAGAAAUAGUCUUGCGCUCAACCAGAAAGUCUGUAAUCAUUUUAAGGGUA [A55G A69G] | 0.78
19 | GUUAACGGUCAUAGGCCAUGGAAACUAGGAGCACCAUUUCGCUGCCAGUGAAGAAAUAAGCAAAGAAAAUCUGGGCCAGGCAGGCAUCAAAAGAAAUAGUCUUGCGCUCAACCAGAAAGUCUGUAAUCAUUUUAAGGGUA [G58A A60G] | 1.51
20 | GUUAACGGUCAUAGGCCAUGGGAACUAGGAGCUCCAUUUCGCUGCCAGUGAAGAAAUGAACAAAGAAAAUCUGGGCCAGGCAGGCAUCAAAAGAAAUAGUCUUGCGCUCAACCAGAAAGUCUGUAAUCAUUUUAAGGGUA [A22G A33U] | 1.4
21 | GUUAACGGUCAUAGGCCAUGGAAAUUAGGAGCACCAUUUCGCUGCCAGUGAAGAAAUGAACAAAGAAAAUCUGGGCCAGGCAGGCAUCAAUAGAAAUAGUCUUGCGCUCAACCAGAAAGUCUGUAAUCAUUUUAAGGGUA [C25U A91U] | 1.13
